From patent US9187525B2, “Methods of treating ophthalmic diseases using NPR-B agonists” (Shire Orphan Therapies GmbH, dated 2015)
Numbered stars: 1 amine (or outer) side, 2 acyl side, 3 side chain; on linkers, the order of the positions; unused ones are H or OH. Square brackets hold non-standard residues; d marks the D form. Ends that are not written are not given here. * marks the point of attachment. Dtp = (R)-2,2-dimethylthiazolidine-4-carboxylic acid, CC1(C)SC[C@@H](C(=O)[*:2])N1[*:1]; Ebe = (R)-2-amino-3-(methylsulfanyl)propanoic acid, CSC[C@H](N[*:1])C(=O)[*:2]; Sni = (S)-nipecotic acid, O=C([C@H]1CCCN([*:1])C1)[*:2]; Pro(trans-4-Ph) = O=C(O)[C@@H]1C[C@@H](c2ccccc2)CN1; Azetidine3carboxylic = O=C(C1CN([*:1])C1)[*:2]; Phe(3-Cl) = N[C@@H](Cc1cccc(Cl)c1)C(=O)O; Pro(cis-4-F) = O=C(O)[C@@H]1C[C@H](F)CN1; Pro(4S-NH2) = N[C@@H]1CN[C@H](C(=O)O)C1; cisHyp = O=C(O)[C@@H]1C[C@H](O)CN1; Hyp = O=C(O)[C@@H]1C[C@@H](O)CN1; NMeF = CN[C@@H](Cc1ccccc1)C(=O)O; tBuAla = CC(C)(C)C[C@H](N)C(=O)O; Cha = N[C@@H](CC1CCCCC1)C(=O)O; NMeL = CN[C@@H](CC(C)C)C(=O)O; d(αMeP) = C[C@]1(C(=O)O)CCCN1; hLeu = CC(C)CC[C@H](N)C(=O)O; Nle = CCCC[C@H](N)C(=O)O; Octanoyl = CCCCCCCC(=O)*; Thz = O=C(O)[C@@H]1CSCN1; Nva = CCC[C@H](N)C(=O)O; dAze = O=C(O)[C@H]1CCN1; Hexanoyl = CCCCCC(=O)*; Ac3c = NC1(C(=O)O)CC1; Aib = CC(C)(N)C(=O)O; Occ = octanoic acid; Sar = CNCC(=O)O

T1: natriuretic peptide receptor-B (human)
T1 chain: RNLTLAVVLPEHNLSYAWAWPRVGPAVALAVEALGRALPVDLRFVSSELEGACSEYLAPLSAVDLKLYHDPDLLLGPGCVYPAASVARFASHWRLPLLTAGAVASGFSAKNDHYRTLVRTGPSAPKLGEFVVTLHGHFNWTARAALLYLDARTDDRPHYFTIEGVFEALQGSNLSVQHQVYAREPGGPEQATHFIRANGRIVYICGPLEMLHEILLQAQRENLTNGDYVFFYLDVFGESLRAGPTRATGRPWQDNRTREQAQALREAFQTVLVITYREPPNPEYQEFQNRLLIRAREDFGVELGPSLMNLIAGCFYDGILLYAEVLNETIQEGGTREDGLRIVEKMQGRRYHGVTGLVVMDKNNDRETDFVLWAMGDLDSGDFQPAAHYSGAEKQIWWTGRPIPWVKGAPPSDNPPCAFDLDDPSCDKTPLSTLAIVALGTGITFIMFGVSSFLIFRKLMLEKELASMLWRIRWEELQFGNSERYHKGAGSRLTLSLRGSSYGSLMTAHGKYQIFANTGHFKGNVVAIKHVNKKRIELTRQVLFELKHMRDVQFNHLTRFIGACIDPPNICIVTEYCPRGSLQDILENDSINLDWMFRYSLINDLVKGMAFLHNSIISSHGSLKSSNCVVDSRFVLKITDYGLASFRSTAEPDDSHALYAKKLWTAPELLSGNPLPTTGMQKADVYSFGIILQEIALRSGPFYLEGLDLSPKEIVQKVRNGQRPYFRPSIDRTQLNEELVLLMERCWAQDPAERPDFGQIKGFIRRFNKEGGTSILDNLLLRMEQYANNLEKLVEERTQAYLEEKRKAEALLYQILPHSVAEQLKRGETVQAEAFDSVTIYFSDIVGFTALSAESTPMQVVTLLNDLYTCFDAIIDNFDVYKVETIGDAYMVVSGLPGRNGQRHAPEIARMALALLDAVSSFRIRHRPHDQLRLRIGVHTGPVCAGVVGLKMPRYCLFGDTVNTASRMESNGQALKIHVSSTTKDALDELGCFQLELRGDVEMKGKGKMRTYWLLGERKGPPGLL

B1: JAL-0924 (peptide)
peptide: [Occ]AFGLPLNRI-NH2
modifications: not fully specified (residue 2); printed as Occ-ala-Phe-Gly-Leu-Pro-Leu-Asn-Arg-Ile-NH2
B2: JAL-0955_01 (peptide)
peptide: [Occ][dP]FGLP[NMeL]DRI-NH2
B3: JAL-0954 (peptide)
peptide: [Occ][dA][NMeF]GLP[NMeL]DRI-NH2
B4: JAL-0979 (peptide)
peptide: [Occ]AFGL[Dtp]LDRI-NH2
modifications: not fully specified (residue 2); printed as Occ-ala-Phe-Gly-Leu-Dtp-Leu-Asp-Arg-Ile-NH2
B5: JAL-0898 (peptide)
peptide: Octanoyl-AFGL[Hyp]LDRI-NH2
modifications: not fully specified (some residues); printed as Occ-ala-Phe-Gly-Leu-Hyp-Leu-Asp-Arg-Ile-NH2
B6: JAL-0927 (peptide)
peptide: [Occ]AFGLPLVRI-NH2
modifications: not fully specified (residue 2); printed as Occ-ala-Phe-Gly-Leu-Pro-Leu-Val-Arg-Ile-NH2
B7: JAL-0967_01 (peptide)
peptide: [Occ][Sni][NMeF]GLPLDRI-NH2
B8: JAL-0951 (peptide)
peptide: [Occ]GFGLPLDRI-NH2
B9: JAL-0959 (peptide)
peptide: [Occ][dA]FGLP[hLeu]DRI-NH2
B10: JAL-0953 (peptide)
peptide: [Occ][dAze]FGLPLDRI-NH2
B11: JAL-0894 (peptide)
peptide: Octanoyl-AFGLPIDRI-NH2
modifications: not fully specified (some residues); printed as Occ-ala-Phe-Gly-Leu-Pro-Ile-Asp-Arg-Ile-NH2
B12: JAL-0895 (peptide)
peptide: Octanoyl-AFGLP[NMeL]DRI-NH2
modifications: not fully specified (some residues); printed as Occ-ala-Phe-Gly-Leu-Pro-Nml-Asp-Arg-Ile-NH2
B13: JAL-0978 (peptide)
peptide: [Occ]AFGL[Pro(cis-4-F)]LDRI-NH2
modifications: not fully specified (residue 2); printed as Occ-ala-Phe-Gly-Leu-Fpr-Leu-Asp-Arg-Ile-NH2
B14: JAL-0940 (peptide)
peptide: [Occ]AFG[Cha]PLDRI-NH2
modifications: not fully specified (residue 2); printed as Occ-ala-Phe-Gly-Cha-Pro-Leu-Asp-Arg-Ile-NH2
B15: JAL-0533 (peptide)
peptide: Hexanoyl-[Ebe][dP]FGLPIDRIS[Ebe]-NH2
B16: JAL-0956 (peptide)
peptide: [Occ][Sni]FGLP[NMeL]DRI-NH2
B17: JAL-0966 (peptide)
peptide: [Occ][dP][NMeF]GLPLDRI-NH2
B18: JAL-0943 (peptide)
peptide: [Occ]AF[Aib]LPLDRI-NH2
modifications: not fully specified (residue 2); printed as Occ-ala-Phe-Aib-Leu-Pro-Leu-Asp-Arg-Ile-NH2
B19: JAL-0962 (peptide)
peptide: [Occ][dA]FGL[d(αMeP)]LDRI-NH2
B20: JAL-0906 (peptide)
peptide: [Occ]AXGLPLDRI-NH2
modifications: not fully specified (residues 2, 3); printed as Occ-ala-Nmf-Gly-Leu-Pro-Leu-Asp-Arg-Ile-NH2
B21: JAL-0975 (peptide)
peptide: [Occ]AFGL[Pro(trans-4-Ph)]LDRI-NH2
modifications: not fully specified (residue 2); printed as Occ-ala-Phe-Gly-Leu-Eay-Leu-Asp-Arg-Ile-NH2
B22: JAL-0929 (peptide)
peptide: [Occ]AFGLPLTRI-NH2
modifications: not fully specified (residue 2); printed as Occ-ala-Phe-Gly-Leu-Pro-Leu-Thr-Arg-Ile-NH2
B23: JAL-0896 (peptide)
peptide: Octanoyl-AFGLP[tBuAla]DRI-NH2
modifications: not fully specified (some residues); printed as Occ-ala-Phe-Gly-Leu-Pro-Npg-Asp-Arg-Ile-NH2
B24: JAL-0944 (peptide)
peptide: [Occ][dA]F[dA]LPLDRI-NH2
B25: JAL-0957 (peptide)
peptide: [Occ][dP][NMeF]GLP[NMeL]DRI-NH2
B26: JAL-0942 (peptide)
peptide: [Occ]AFG[Nle]PLDRI-NH2
modifications: not fully specified (residue 2); printed as Occ-ala-Phe-Gly-Nle-Pro-Leu-Asp-Arg-Ile-NH2
B27: JAL-0974 (peptide)
peptide: [Occ]AFGL[Pro(4S-NH2)]LDRI-NH2
modifications: not fully specified (residue 2); printed as Occ-ala-Phe-Gly-Leu-Apr-Leu-Asp-Arg-Ile-NH2
B28: JAL-0903 (peptide)
peptide: Octanoyl-AFG[tBuAla]PLDRI-NH2
modifications: not fully specified (some residues); printed as Occ-ala-Phe-Gly-Npg-Pro-Leu-Asp-Arg-Ile-NH2
B29: JAL-0958_01 (peptide)
peptide: [Occ][Sni][NMeF]GLP[NMeL]DRI-NH2
B30: JAL-0985 (peptide)
peptide: [Occ][Azetidine3carboxylic]FGLPLDRI-NH2
B31: JAL-0945 (peptide)
peptide: [Occ][dA]F[Ac3c]LPLDRI-NH2
B32: JAL-0946 (peptide)
peptide: [Occ][dA][Phe(3-Cl)]GLPLDRI-NH2
B33: JAL-0926 (peptide)
peptide: [Occ]AFGLPL[Nva]RI-NH2
modifications: not fully specified (residue 2); printed as Occ-ala-Phe-Gly-Leu-Pro-Leu-Nva-Arg-Ile-NH2
B34: JAL-0921 (peptide)
peptide: [Occ]AFGLPLD[Nmr]I-NH2
modifications: not fully specified (residue 2); printed as Occ-ala-Phe-Gly-Leu-Pro-Leu-Asp-Nmr-Ile-NH2
B35: JAL-0980 (peptide)
peptide: [Occ]AFGL[Thz]LDRI-NH2
modifications: not fully specified (residue 2); printed as Occ-ala-Phe-Gly-Leu-Eaz-Leu-Asp-Arg-Ile-NH2
B36: JAL-0950 (peptide)
peptide: [Occ][Sar]FGLPLDRI-NH2
B37: JAL-0964 (peptide)
peptide: [Occ][dA]FGL[cisHyp]LDRI-NH2

Molecular target: T1, natriuretic peptide receptor-B
Assay: cell-based or functional assay

B1 and B2 cannot be ordered by “EC50 group, cGMP in GTM-3 cells” value: at most 15 µM for the first, at most 5 µM for the second.

B3 and B4 cannot be ordered by “EC50 group, cGMP in GTM-3 cells” value: at most 5 µM for the first, at most 15 µM for the second.

B5 and B6 cannot be ordered by “EC50 group, cGMP in GTM-3 cells” value: at most 5 µM for the first, at most 15 µM for the second.

B7 and B8 cannot be ordered by “EC50 group, cGMP in GTM-3 cells” value: at most 15 µM for the first, at most 15 µM for the second.

B9 and B10 cannot be ordered by “EC50 group, cGMP in GTM-3 cells” value: at most 15 µM for the first, at most 5 µM for the second.

B11 and B12 cannot be ordered by “EC50 group, cGMP in GTM-3 cells” value: at most 15 µM for the first, at most 5 µM for the second.

B13 and B14 cannot be ordered by “EC50 group, cGMP in GTM-3 cells” value: at most 15 µM for the first, at most 15 µM for the second.

B15 and B16 cannot be ordered by “EC50 group, cGMP in GTM-3 cells” value: at most 15 µM for the first, at most 5 µM for the second.

B17 and B18 cannot be ordered by “EC50 group, cGMP in GTM-3 cells” value: at most 15 µM for the first, at most 15 µM for the second.

B19 and B20 cannot be ordered by “EC50 group, cGMP in GTM-3 cells” value: at most 15 µM for the first, at most 15 µM for the second.

B21 and B22 cannot be ordered by “EC50 group, cGMP in GTM-3 cells” value: at most 15 µM for the first, at most 15 µM for the second.

B23 and B24 cannot be ordered by “EC50 group, cGMP in GTM-3 cells” value: at most 15 µM for the first, at most 15 µM for the second.

B25 and B26 cannot be ordered by “EC50 group, cGMP in GTM-3 cells” value: at most 15 µM for the first, at most 15 µM for the second.

B27 and B28 cannot be ordered by “EC50 group, cGMP in GTM-3 cells” value: at most 5 µM for the first, at most 15 µM for the second.

B29 and B30 cannot be ordered by “EC50 group, cGMP in GTM-3 cells” value: at most 5 µM for the first, at most 15 µM for the second.

B31 and B32 cannot be ordered by “EC50 group, cGMP in GTM-3 cells” value: at most 15 µM for the first, at most 15 µM for the second.

B33 and B34 cannot be ordered by “EC50 group, cGMP in GTM-3 cells” value: at most 15 µM for the first, at most 15 µM for the second.

B35 and B36 cannot be ordered by “EC50 group, cGMP in GTM-3 cells” value: at most 15 µM for the first, at most 15 µM for the second.

For B37, the “EC50 group, cGMP in GTM-3 cells” value was at most 15 µM.
